This note sets out measurements from US20260297172 (published 2026).

Where a chain is given by its changes, count along the chain named.

Experiment [1] deals with T1, S100A8 (human, UniProt P05109).
T1 chain: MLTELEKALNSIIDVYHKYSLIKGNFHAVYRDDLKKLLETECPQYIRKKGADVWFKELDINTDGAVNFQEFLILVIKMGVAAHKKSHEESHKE
In words: ELISA. For orientation: ELISA stands for enzyme-linked immunosorbent assay.

For experiment [2], the target named is T2, S100A8/A9 (human, UniProt P05109).
T2 chain 1: T1 chain
T2 chain 2: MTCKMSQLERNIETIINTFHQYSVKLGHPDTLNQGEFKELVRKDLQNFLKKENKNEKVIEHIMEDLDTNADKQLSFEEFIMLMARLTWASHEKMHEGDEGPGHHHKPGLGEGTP
As to the kind of experiment: competition ELISA, blocking CD69 binding.

For experiment [3], the target named is T3, S100A9 (human, UniProt P06702).
T3 chain: T2 chain 2
In words: ELISA.

Experiment [4] addresses T2, S100A8/A9. As to the kind of experiment: BLI. Background: BLI is a label-free optical method that tracks binding on a fibre tip over time.

B1: 6C8 (antibody, V domains shown)
VH: QEQLVESGGGLVTLGGSLKLSCKASGIDFSIYGISWVRQAPGKGLEWIAYIYPDYSTTDYASWVNGRFTISFDNAQNTVFLEMTSLTAADTATYFCARRYSGYYGLWGPGTLVTVSS
VL: ALVMTQTPSSVSAPVGGTVTIKCQASQSISSYLAWYQQKPGQRPKLLIYGASSLESGVPSRFKGSGSGTEYTLTISDLECDDAATYYCQGAHAGSSADAFGGGTEVVVKG
Consider B1, for which, in experiment [1], the binding result is on record as “no binding”.

B2: 6C8-mIgG2a (antibody, V domains shown)
VH: B1 VH
VL: B1 VL
B2: in experiment [2], the IC50 (commonly the concentration that inhibits the measured activity by half) is around 2.5 mg/L.

B3: 8H6-mIgG2a (antibody, V domains shown)
VH: CQSLEESGGDLVKPEGSLTLTCKASGFSFSSGCWVCWVRQAPGKGLEWIACIYTGDGDTYYANWARGRFTVSRTSSTTVTLQLTSLTAADTATYFCASPQPGDITYLGFWGPGTLVTVSS
VL: DIVMTQTPASVSEPVGGTVTIKCQASQNINSYLSWYQQRPGQPPKLLISLASDLASGVPSRFKGSESGTDYTLTISDLECADAATYYCQGYFADSGSSGRSWAFGGGTEVVVQG
With B3, the IC50 in experiment [2] was around 1.25 mg/L.

B4: 8H6 (antibody, V domains shown)
VH: B3 VH
VL: B3 VL
Consider B4, for which the binding result in experiment [3] is reported as “no binding”.

B5: 8H6-HC (antibody, V domains shown)
VH: B3 VH
VL: B3 VL
As to B5, in experiment [4], the Kd (usually the equilibrium constant for the complex coming apart) came to 1.37 nM.

B6: 14G9 (antibody, V domains shown)
VH: QEQLVESGGGLVQPEGSLTLTCTASGFSFSSDYYMCWVRQAPGKGLEWIACIGGGYGGSPYYATWAKGRFTISKTSSTAVTLQMTSLTAADTATHFCARGVPGSSCFFDLWGPGTLVTVSS
VL: DVAMTQTPASVSEPVGGTVTIKCQASQSIGSSLAWYQQKSGQPPKLLIYDAFDLASGVSSRFKGSGSGTEYTLTISDLECADAATYFCLGGYYDANTFGGGTEVVVKG
B6: the binding result in experiment [3] and in experiment [1] was “no binding” each time.

B7: ROIS-2 (antibody, V domains shown)
VH: NVQLVESGGGLIHPGGSLSLSCKASGFSFSSGCWVCWVRQAPGKGLEWVACIYTGDGDTYYADSVKGRFTISRTSSKTTVYLQMNSLRAEDTAVYYCASPQPGDITYLGFWGQGTLVTVSS
VL: DIHMTQSPSSLSASVGDTVTITCQASQNINSYLSWYQQKPGKAPKLLISLASDLASGVPSRFSGSESGTDYTLTISSLQPEDFATYYCQGYFADSGSSGRSWAFGQGTKVEIKR
The molecule B7 displayed a dissociation constant Kd in experiment [4] of 0.608 nM.

B8: ROIS-3 (antibody, V domains shown)
VH: QVSLEESGGDLVQPGGSLRLACVASGFSFSSGCWVCWVRQAPGKGLEWVSCIYTGDGDTYYANSVRGRFTVSRQNSTTSVYLQMNSLRADDTALYFCASPQPGDITYLGFWGPGTLVTVSS
VL: B7 VL
In experiment [4], B8 displayed a Kd of 0.0477 nM.

B9: ROIS-1 (antibody, V domains shown)
VH: B7 VH with K66R
VL: B7 VL with K39E
Consider B9, for which, in experiment [4], the Kd is 0.789 nM.

B10: ROIS-4 (antibody, V domains shown)
VH: B8 VH with Q74K
VL: B7 VL
B10: binding in experiment [4] was put at a Kd of 1.76 nM.

B11: ROIS-5 (antibody, V domains shown)
VH: B8 VH with Q74R
VL: B7 VL
Regarding B11, the Kd in experiment [4] came to 0.623 nM.
